Experiment: RP-HPLC of hirudin in water (FIG. 1)
Format: physicochemical
Protocol: RP-HPLC method: A LiChroCART 125-4 column is used (Merck LiChrospher 100 RP-18 5 μm). Solvent A is 0.5% ammoniumacetate in acetonitrile/water (10:90), (v:v); solvent B is 0.5% ammoniumacetate in acetonitrile/water (25:75). The elution is performed at 45° C. using a flow rate of 0.5 ml/min. The binary elution is a linear gradient starting at time zero with 23% solvent B and reaching 46% solvent B after 24 minutes. After 2 min at 70% solvent B the column is equilibrated for 7 min at 23% solvent B.
A typical chromatogram of recombinant hirudin HV1 (CGP 39393) in water using the RP-HPLC (1 mg/ml hirudin) method is shown in FIG. 1.
In FIG. 1 the relative area of the main peak is 95.15%. […] The changes which occur can be accelerated by using temperature stress experiments i.e. by storage at elevated temperatures.

With hirudin the “relative area of the main peak” value (in water, 1 mg/ml hirudin, typical chromatogram FIG. 1, no storage stress) was 95.15% and the “stability on storage in water” value (storage in water at room temperature) was “increase of by products with time”.

— patent publication US6436901B1, “Pharmaceutical compositions” (UCP Gen-Pharma AG, priority 1994, dated 2002)
